Decrease of in vitro binding efficiency against wild-type Fzy data for one molecule are collected here from PMC4639866.

The target in the test is GST::BubR1 [1–337] (Drosophila). In words: pull-down.

B1: GFP::Fzy-DYY* (natural protein)
chain: MSQFNFVSDLQNALIMDGETRGPAPRWKKKLEASLNGSVNTTRSVLSVSYNTSFSGVQAPTKTPGKSSEGKTKKSNTTPSKTPGGGDRFIPNRAATNFELAHFLVNKDSGDKSDEENDKATSSNSNESNVQASAHKGDRQKLISEVAQVGDSKGGRILCYQNKAPAAPETHNNPLKVVYSIKTPISTKSGSRYIPTTSERILDAPDFINAAALNLMDWSADNIVAVALGSCVYLWNAQTGNIEQLTEFEEGDYAGSLSWIQEGQILAIGNSTGAVELWDCSKVKRLRVMDGHSARVGSLAWNSFLVSSGSRDGTIVHHDVRAREHKLSTLSGHTQEVCGLKWSTDFKYLASGGNDNLVNVWSAASGGVGTATDPLHKFNDHQAAVRALAWCPWQPSTLASGGGTADRCIKFWNVNNGTLMKSVDSKSQVCSLLFSRHYKELISAHGFANNQLTIWKYPTMVKQADLTGHTSRVLQMAMSPDGSTVISAGADETLRLWNCFAPDPLASKKAVSTSKGKQSVFRQSIR
For B1, the decrease of in vitro binding efficiency against wild-type Fzy turned out to be 50%.
